Experiment: soluble on expression in E. coli; label from the status in PepcDB or PDB records
For “MGSDKIHHHHHHMRTHGWNSTCVNRPSGSANSRRLVAHGNGWQTIDMDFAARYVALGDSFTEGVGDDDPARPNGVRGWADRVAEQLGAADPAFGYANLAIRGRKLRQIMAEQVDAAIELKPTLVTIYAGANDILRPKVDIDDLLAEYDAGIRKLSATGATVVMFTGFDARGSKVFGTMRGRTAIYNELVRGIAGDHGALLVDYWRFSEYYDWGMWAKDRMHMSAAGHANMAKRVLTVLEHDHSIDVPPMTPVPELSRADAIRANARWVREFAGPWVVRRVTGKSSGDGLQPRYSQLTRL”, the “soluble on expression in E. coli” value was “not soluble”.
For “GPGSMEEFYGMEVFAGKTAKPNISADRVLHVTQVALPPNASHAITLLVKTEGKSFVLATLDPQQALFHVSVDMLFSGKQKLAFTCEGATGAVHIIGYTQLAEEEEDAIDDEDDDDMMDDEDVA”, the “soluble on expression in E. coli” value was “soluble”.
In the case of “MSFTDEKIRLNIGGTIFETSKSTLTKFDGFFKTLLETDIPIQKDDSNCIFIDRSPRHFEKILNYLRDGADVDLLPESEKEVREILKEAQFYLLEGLMELCKRSSCKIRTFESYHHLLKLIAEAGKPVLVMFYLVKDNRIVHVPNNFEFLDFLEKHQGKLDIYFKESPYETTHQNPSQFLPPGREEAAPSWTYCFYNTPKLPFRFTISFVEKLEEDIEFVLGNLNK”, the “soluble on expression in E. coli” value is reported as “not soluble”.
For “MSLTDDEISSTETAPDIATQPPLFVLGVGAARLDAGRLAELLDAVAGAANLAIMLLLRDRQLLDEAHLRALLGKQATLLSVPFDGEKLQPGRFYLPPADTVVTLEEGRIRLRALPNGESDHGLIDSFFVSMAHDQDGNVIGLIMGRFDGDGTLGTAAIKECGGLALAVDDASLHGLDLRSASNPAAITDHILPLPQLTARIAAHMQRHHGFGHPGPLGVRNGSESDKLSQIAAILRNTTGHDFHGYKRATFLRRVQQRMQVAQVEMLEQYLHILRYRFDEPLQLFNDLLIGVTKFFRDRRGFELLEQQVIPRLFKGKHTDDSMRVWVLGCSTGEEAYSLAMLLREHAETLDSAPRIQIFASDIDGRALATARVGRYASSIVGEVALERLRRWFVKEGDTYVVNKELRELCVFSQHSIVKDPPFSRLDLVSCRNLLIYLDAELQNRVIPIFHFAIRPGGYLFLGNAENVSLQAQLFTPVDRSVRVFQREGHHHHHH”, the “soluble on expression in E. coli” value was “not soluble”.
With “MVSQTERQHAIASLLAPTGAVSVGDLAEHFHVTTETVRRDLRIMESLGLLQRVHGGAISPEPMGTSPPRLKPALGKGMPPEPRVLELAETAVSLITPLARSIFLDSGLACTAIATVLGDPPEDARWTVVTSSPGAVIALSATDATSTVVLHGQVHGNCSSIIGSTAVDMISQLRADIAFVEVDAIQSDTSLCTFFPETIPIKQAMIKNAAFTVAVLSPRSPQDQELQLLKHPFSTLADFDALVTDDHTLDFPVLPDHNFQVVTPLEHHHHHH” the “soluble on expression in E. coli” value was “soluble”.
With “MSLNARSYLEQQLTGQNANAANALALAITQSQADKAMAETLINATFDQGYFHHIRWQGADGKVRVDRVNEAVFPAAPGWFRALLPLSPQPGSALVTAGWMQAGEIRVEAALGYAYESLWRGALQTMLWLLGTGLLAGLLGSIDIFKLRRDLQRVVNQARAISEHRFQRMTEPKVPELARVVGAMNQMVERLQSFLGEQSEEVEQLRRERHTDPVTGLPNREALEQAVSSTLAEEDDVRGCLLLLRLAGLAELNQRLGGERADALLVRLAADLEDLAARRKGWMAARLRGADFAVFCPELDMDGGRQLAETLCEQLALYRQMGLSDRDGIGHIGVCGIVQGDGLASLLARASQALAEAEAAGDNQWRVDDGAGPDVGSEWDWRELIEAACREHSLRLRWFPVRDAARGILWQEGMLYRPPMDGLPAINAMRLVSHSLRLGLSHLADLEALRLALADAPGAALAVNLSPASLAARGFQWQVTEMLAGSRATVSFEFDEAGLDEHWAAFLAFGEAVKGAGHRLAVEIRGHRLELVARLNQAGIDYLVLDGALTRGIHRDEGRKVLVKGVQRMTSLMGARLIAKGVASEEDARLLLELRVDGLTGPAEGHHHHHH” the “soluble on expression in E. coli” value was “not soluble”.
For “GAVDLNDDVLDMGTGLRMQLYQCGDPRGRPVLYLHGMLDGMAPLEYLKHDFARRGLRVLAPVRPGYGLSEPVAGVEPGLRAMASHAVELIDRFALDRVAILGHMAGAVTGYVLRAGGDPRLAGMVAVAASGPLLRRAQLSGMARRQRMMAMTARWTPALLPFFVRAGIALIDSEEVGRFMDALYPPGSHERQVVDRLELAALMHAGYRFAAQSGTAGFEADALTMVSPWQRLSDGGTCPVVHLHGALDPVVPAAETARFAASISGASFRRFEDVGQFLIYERPDAVLDAIEAMLPPR”, the “soluble on expression in E. coli” value was “not soluble”.
For “MGSDKIHHHHHHMVKGLDMIFYLHGFDATSPGNHEKMRQLQFIDPDVRLLSYSTLHPKHDMQHLLKEVAKQMQHTDDPEPLMVGVGLGAYWAERIGFLNGLKSVLINPNLHPENNMQGKIDRPEEYADIASKCVSEFRLKNTHRAMCIFSVNDDVLDCKANAQELSEYYAIEWDDVQPHKFPQLAAHLPKIKAFKLA”, the “soluble on expression in E. coli” value was “not soluble”.
In the case of “MKFCSLCGATVVQRIPDGDNRLRYVCDACHTVHYQNPRIVAGSLPVWDGQVLLCRRAIAPRLGYWTLPAGFMENGETLAQAAARETEEEANARIGDLQLYTLFDLPHISQVYLFFRAELLDLDFSAGDESLEVRLFDEAEIPWSELAFPTIGRTLECYFSDRREGCFPVRNEAIAPMLASYKKD”, the “soluble on expression in E. coli” value is reported as “not soluble”.
In the case of “MGRGRKHTDAAAEQRELAIKANIVDEPFSVSAIDRSIRKAEWVKTETDQILSGRCPETDGTWLGISTRGRVAFLVEAGTINRDRFNGAESRTLEFLESNESPEDFAKSSAADYIRNKNTAAFHLIVADIASNSMLYISKPRFSDYGIVYTEPVGPGVHTLSSAGLDSDVGYRDLRMRHSFCEMINRERLPPIRDIAEIMYDPVKAYESVLLSSIFFVDMKIGYEHYGTRITTALVVKRTKEVLFFERYREIFNDDWDDHDFAFTII”, the “soluble on expression in E. coli” value is reported as “not soluble”.
In the case of “MGSDKIHHHHHHMFKPMASVFTNHQIAGHYRAIERAQKCVVPFHFEIQGQEYPKPKPERNWLRRLSGTSSEKYAMVELTPTKVVLWSPEGRNLGEMPLSAVRRIQIGAIRCHVTEGLDPRHAFRATIFVLTDSGNYYFANSDMEVLPAICKFAHEHQVPVEDPLRLIPLLKVGWRVAAVTLHETYAQLVAHTGYPADKV”, the “soluble on expression in E. coli” value is reported as “not soluble”.
For “MENFQPHKQCGYGVIMRLTSKGRYAVTAMLDVALHSQQNPVPLADISERQGISLSYLEQLFSKLRKAGLVASVRGPGGGYRLGMDSYAISIGTVIAAVDESVDATKCNGKGDCQGGTRCLTHTLWRDLSSRITDFLNNITLGELMMDNEVLEVSDRQDLHLAVSQRVSQNNSNTVTIGAAPFGINVRS”, the “soluble on expression in E. coli” value was “not soluble”.
For “MTTLQEAYLAFKSAQIIDLTHQINENSPHFPLLPALEKKDLFTLKDGFHIQQFTVVGQYGTHIDAPIHFVEGGAWLDELPLEDLLLPMYVIDKSQAVADNPNYELSKADILAFEEKYGQIEEGAFVAFRSDWSKRWPSQEEFRNLDTAGAQQTPGWSHEALEFLIHERQVKAVGHETFDTDSGQAVAENGKLVEEYYLLDQGIYQLEVLNNLNLLPATGSFISIAYPHWEKATGSPVRAIAYIAQELEHHHHHH”, the “soluble on expression in E. coli” value was “soluble”.
For “MSENENSQEKNELLDALNSVEEVNVGDVVKGEVLAIDDDKQVIVGIQGTGVEGVVPLKELSTQRVDDVNEAAKVGDVLDLVVISRIGSDKENGSYLLSHRRLEARKVWDDVEKEYEAGHTIKAPVTQVVKGGLVVDAGVRGFIPASMIDDHYVEDLNAYKGQELELKIIEIEPSENRLILSHRAVVEKQREAQREEALKTLQAGDVVEGKVARLTNFGAFVDLGGIDGLVHVSEISYERVEKPADVLKVGQEVTVKILSVDADRERVSLSIKATLPEPWDGIEEKAPQGAVLDGKVKRLTSFGAFVEVFPGVEGLVHISQISHQHIATPNDVLKVGQEIKVKVLDVRPDEKRLALSIKALEEKPQTADDDNESQPERRSNNNRRRNNNRDNRTASERSTANAPEESTGFTLGDLIGDELKNAESNNDENLEHHHHHH”, the “soluble on expression in E. coli” value was “not soluble”.
With “MSTNEIYNREEVLLLIEKLLGNNIEIPILLMLLLGLRMGEATGLRWSDVDLDNNLINVNQILVYSNGKISFKEPKTPKSKRALSAPKELIEKLKIEKLRQSKLKLQGILENKNNLVCLNTNLNPFLPSSLRKTFHNFTKKNNLKKIRIHDLRHTSATLLLLGGTNMKVVSERLGHTDIKITMNRYSHVLKEMDKEASDNLSELLEHHHHHH” the “soluble on expression in E. coli” value was “not soluble”.
In the case of “TDESRGKARAAGVESAVLLENKSRLLPLAKEAKIALVGPLATSPDILGGWNVYGEEKDGINVETGLREVFETVEVVSTEYTELSEEDKVAVKAAVQNMDVVVLALGEKNEWGGEAGSLATIRLPEAQYQLAKFVQTLGKPVVITLFNGRPLEVKELAESSDALLELWFPGTEAGRVTADLLSGASNPSGKLSMSFPQTTGQIPVYYNHLRTGRPQTPENKGERYVSHYLDIPNEPFYPFGYGKSYSEF”, the “soluble on expression in E. coli” value is reported as “not soluble”.
With “MRCGIAGLCARAKKVLGEDPAGGTLLVFRGRMGDRLKILHWDGQDFCLYYKVLERGHFPWPKATEGKVALTPAQMAMLWEGIDWRQPRWTSAPTRM” the “soluble on expression in E. coli” value was “not soluble”.
For “MQTLKYISGYSPDIQRQVQQLLESGKLGDVLLRRHPQVHEIRSDKALYDYTQGIKNQFLRQSSPLSKVIFDDKISMSHHALGLHSYVARVQGNKIKAKNEIRISSRLKRVPEPLLRMVVVHELAHLKEKDHNKAFYNLCTYMEPDYHQFEFDLRLLLTCIDANQSPYATNSINLEHHHHHH”, the “soluble on expression in E. coli” value was “soluble”.
For “MGSDKIHHHHHHMLLGSFQSVLEARNRDEFRGEVVRFAKRLGFETVSAITVVDHPVGDTEFVAIDNAPDAYKDAIEDPKAGQLDPVMQHCKRQSVPIIWDQSTYVSAGQGSMWEAQARFGFRTGICLALHMPEGRHFVIGVDRDQALPKDRGEVTRLVADLQLFAVHAQDTAMRVLVPERLQLERPKLTPRELDSLRWTMDGKTAWEVGSIMGISERTAVLHINNAMHKLACTNKHQAVLKALRLGLLR”, the “soluble on expression in E. coli” value was “not soluble”.
In the case of “AHHHHHHGSPITKVTRNYQITIPAEIRKALGIKEGELLEVRLENGKIIIERLKKERKTLKLGKKLTLEEIEKAIEEGMKQCMQMHAVIDTNVLIYDTFSDSEFHKESRSLLNSLDRWYIPSIVLQEYVWFFRSQGFSSREAKIMLSEYISDPRFRGLVEDHNVILRAIDILERENLSLSRFNDMIILVHAIEKGTLATFDQKLRKLARKLSVEILP”, the “soluble on expression in E. coli” value is reported as “soluble”.
In the case of “MGSDKIHHHHHHMKRIGIIAAWQPELNYLHEEYPSRKVRKIAAWEFHYHSINNLEIISVISGVGKTNCSSCTQLLISEFRPDEIYMTGICGSLSDSIKGGEIVIARQMLQHDVTNAGKGDDVWDLYTGRTSIIDGDNSIFSDFLNFAINTSEHKINNGMFISGDQRIREDVLRSSLSSTHNAIAVDQEIASFSYVSYVNKIPFLCVKSVSDQADNKTIEDQKRFKLLACENSCKLLIEFLLR”, the “soluble on expression in E. coli” value is reported as “not soluble”.
For “MTVVKEELKEALEMLKNTGVRITPQRHAILEYLVESMTHPTADDIYKALEGKFPNMSVATVYNNLRVFKEVGLVKELTYGDASSRFDYVTSQHYHVICEKCGKIVDFPYGGLEKLEEEAAKTTGFVINSHRLEIYGVCPECHKA”, the “soluble on expression in E. coli” value was “not soluble”.
In the case of “MERKMATHFARGILTEGHLISVRLPSQCHQEARNIPPHRQSRFLASRGLLAELMFMLYGIGELPEIVTLPKGKPVFSDKNLPSFSISYAGNMVGVALTTEGECGLDMELQRATRGFHSPHAPDNHTFSSNESLWISKQNDPNEARAQLITLRRSVLKLTGDVLNDDPRDLQLLPIAGRLKCAHVNHVEALCDAEDVLVWSVAVTPTIEKLSVWELDGKHGWKSLPDIHSRANNPTSRMMRFAQLSTVKAFSPN”, the “soluble on expression in E. coli” value is reported as “not soluble”.

Reference: the DeepSol protein solubility set
